How the values were obtained:
human C5b-6 complexes [1] = biological target: T1, human C5b-6 complexes (human, UniProt P01031 752-1676; P01031 19-673; P13671 22-934); assay: ELISA, rFHR-5 coated at 50 to 0.4 pmol/well, C5b-6 detected with anti-C6 K1.115
T1 construct: Complex of C5b and C6
Experimental: (§1) Binding of C3b, C5b-6 and HSA to recombinant FHR-5 (panel A) or Factor H (panel B) was determined by ELISA.
(§2) Recombinant FHR-5 or Factor H (Sigma) were serially diluted 1:2 in 0.1 M carbonate buffer, pH 9.3. Duplicate wells in microtitre plates were incubated with dilutions of FHR-5 or Factor H from 50 pmol/well to 0.4 pmol/well. The plates were blocked and wells incubated with human C3b, C5b-6 or HSA at 10 μg/well. C3b was detected by incubation with polyclonal rabbit anti-C3 antibody (1:1000 dilution) followed by peroxidase-conjugated swine anti-rabbit antibody (1:2000 dilution). C5b-6 and HSA were detected using K1.115 (anti-C6) and anti-HSA monoclonal antibodies, respectively, (1:500 dilution) followed by peroxidase-conjugated rabbit anti-mouse antibody (1:2000 dilution). The ELISAs were developed with O-phenylenediamine dihydrochloride. The reaction was stopped with 4M H₂SO₄ and the optical density of the solution was measured at a wavelength of 492 nm using a Behring EL31 microplate reader.

[2] = biological target: human serum albumin (HSA) (human, UniProt P02768 25-609); assay: ELISA, rFHR-5 coated at 50 to 0.4 pmol/well, HSA detected with anti-HSA monoclonal antibody
Sequence of human serum albumin (HSA) (P02768 25-609 limits assumed): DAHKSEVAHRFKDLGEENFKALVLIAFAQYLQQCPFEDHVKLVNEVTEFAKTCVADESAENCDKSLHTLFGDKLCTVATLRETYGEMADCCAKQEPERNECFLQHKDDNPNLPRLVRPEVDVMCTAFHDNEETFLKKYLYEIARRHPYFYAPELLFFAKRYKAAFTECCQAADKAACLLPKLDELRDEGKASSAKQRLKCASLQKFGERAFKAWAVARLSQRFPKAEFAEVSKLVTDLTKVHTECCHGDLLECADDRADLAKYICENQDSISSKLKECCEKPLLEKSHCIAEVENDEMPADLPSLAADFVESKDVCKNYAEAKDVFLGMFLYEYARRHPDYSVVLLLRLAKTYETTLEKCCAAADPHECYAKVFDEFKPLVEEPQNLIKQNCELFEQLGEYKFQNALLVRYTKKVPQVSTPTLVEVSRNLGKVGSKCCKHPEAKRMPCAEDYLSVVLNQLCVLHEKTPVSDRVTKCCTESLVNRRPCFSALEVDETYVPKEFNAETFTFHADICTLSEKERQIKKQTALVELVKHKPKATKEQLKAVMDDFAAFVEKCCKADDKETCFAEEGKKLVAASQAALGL
Experimental: as §1, §2

human C3b = human C3b (human, UniProt P01024 749-1663; P01024 23-667); assay: ELISA, rFHR-5 coated at 50 to 0.4 pmol/well, C3b at 10 µg/well, detected with polyclonal anti-C3
Sequence of human C3b (P01024 749-1663 limits assumed, chain 1 of 2): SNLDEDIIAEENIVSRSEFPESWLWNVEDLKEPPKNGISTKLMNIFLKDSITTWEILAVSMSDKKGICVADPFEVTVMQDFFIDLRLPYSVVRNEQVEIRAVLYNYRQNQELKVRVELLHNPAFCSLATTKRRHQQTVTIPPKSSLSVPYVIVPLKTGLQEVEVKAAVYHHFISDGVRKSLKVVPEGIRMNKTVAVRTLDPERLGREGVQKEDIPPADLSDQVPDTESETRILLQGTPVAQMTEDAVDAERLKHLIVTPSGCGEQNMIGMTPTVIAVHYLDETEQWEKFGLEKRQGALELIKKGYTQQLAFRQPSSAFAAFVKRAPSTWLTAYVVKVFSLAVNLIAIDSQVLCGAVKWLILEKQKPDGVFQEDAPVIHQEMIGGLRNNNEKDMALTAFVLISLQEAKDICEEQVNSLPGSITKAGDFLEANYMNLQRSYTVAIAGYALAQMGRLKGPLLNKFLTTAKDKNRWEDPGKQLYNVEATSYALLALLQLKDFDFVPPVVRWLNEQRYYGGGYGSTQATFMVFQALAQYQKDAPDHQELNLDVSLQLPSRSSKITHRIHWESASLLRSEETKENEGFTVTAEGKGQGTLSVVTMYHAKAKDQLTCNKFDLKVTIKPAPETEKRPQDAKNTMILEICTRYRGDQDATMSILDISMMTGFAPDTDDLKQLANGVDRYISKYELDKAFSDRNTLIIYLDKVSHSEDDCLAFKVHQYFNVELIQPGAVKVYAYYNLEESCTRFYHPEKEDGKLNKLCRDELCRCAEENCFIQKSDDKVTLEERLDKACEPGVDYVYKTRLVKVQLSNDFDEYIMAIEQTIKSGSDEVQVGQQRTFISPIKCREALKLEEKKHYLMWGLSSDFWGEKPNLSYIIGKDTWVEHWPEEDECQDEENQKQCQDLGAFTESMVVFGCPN
Sequence of human C3b (P01024 23-667 limits assumed, chain 2 of 2): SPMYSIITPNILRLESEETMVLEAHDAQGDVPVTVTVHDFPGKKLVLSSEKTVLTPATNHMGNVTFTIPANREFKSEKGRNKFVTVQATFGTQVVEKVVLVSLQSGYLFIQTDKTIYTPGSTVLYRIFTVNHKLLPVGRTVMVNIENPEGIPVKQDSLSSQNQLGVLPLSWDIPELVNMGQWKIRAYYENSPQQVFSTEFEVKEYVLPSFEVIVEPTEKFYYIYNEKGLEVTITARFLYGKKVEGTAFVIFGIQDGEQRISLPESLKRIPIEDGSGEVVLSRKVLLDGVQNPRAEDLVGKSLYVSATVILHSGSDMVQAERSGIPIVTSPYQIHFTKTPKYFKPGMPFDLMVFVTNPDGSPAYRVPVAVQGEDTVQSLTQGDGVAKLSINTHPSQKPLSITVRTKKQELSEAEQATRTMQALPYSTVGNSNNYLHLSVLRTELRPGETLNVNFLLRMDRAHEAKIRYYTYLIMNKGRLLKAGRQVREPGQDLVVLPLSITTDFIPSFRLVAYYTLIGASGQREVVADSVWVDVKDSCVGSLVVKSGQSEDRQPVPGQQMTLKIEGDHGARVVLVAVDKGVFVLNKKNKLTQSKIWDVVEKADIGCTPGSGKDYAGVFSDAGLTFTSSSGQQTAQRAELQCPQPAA
Experimental: as §1, §2

human C5b-6 complexes [3] = biological target: T1, human C5b-6 complexes; assay: ELISA, Factor H coated at 50 to 0.4 pmol/well, C5b-6 detected with anti-C6 K1.115
Experimental: as §1, §2

T1 sequence (P01031 752-1676 limits assumed, chain 1 of 3): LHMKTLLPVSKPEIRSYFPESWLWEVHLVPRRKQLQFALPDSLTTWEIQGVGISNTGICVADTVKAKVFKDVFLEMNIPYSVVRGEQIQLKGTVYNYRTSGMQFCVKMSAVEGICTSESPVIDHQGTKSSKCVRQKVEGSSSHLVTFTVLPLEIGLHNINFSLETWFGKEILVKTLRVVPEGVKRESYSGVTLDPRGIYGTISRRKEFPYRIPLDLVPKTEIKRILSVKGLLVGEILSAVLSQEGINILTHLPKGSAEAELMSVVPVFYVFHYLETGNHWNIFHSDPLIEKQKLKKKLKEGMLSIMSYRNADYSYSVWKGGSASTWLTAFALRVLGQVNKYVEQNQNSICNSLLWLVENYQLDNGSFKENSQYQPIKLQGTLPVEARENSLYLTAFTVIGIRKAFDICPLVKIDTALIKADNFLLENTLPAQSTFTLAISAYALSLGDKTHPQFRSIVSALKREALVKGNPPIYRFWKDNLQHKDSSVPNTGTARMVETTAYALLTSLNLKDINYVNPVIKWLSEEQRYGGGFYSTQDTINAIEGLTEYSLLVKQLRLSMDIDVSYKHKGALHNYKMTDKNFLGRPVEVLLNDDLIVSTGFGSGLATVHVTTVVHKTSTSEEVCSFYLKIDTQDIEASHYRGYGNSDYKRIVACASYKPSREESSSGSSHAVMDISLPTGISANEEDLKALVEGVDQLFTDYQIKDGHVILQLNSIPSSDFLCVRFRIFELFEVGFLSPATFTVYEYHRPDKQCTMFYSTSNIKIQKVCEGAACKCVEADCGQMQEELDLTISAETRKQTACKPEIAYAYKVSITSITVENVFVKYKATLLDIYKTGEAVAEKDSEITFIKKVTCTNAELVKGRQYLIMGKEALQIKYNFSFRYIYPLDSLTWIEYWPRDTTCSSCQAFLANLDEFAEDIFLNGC
T1 sequence (P01031 19-673 limits assumed, chain 2 of 3): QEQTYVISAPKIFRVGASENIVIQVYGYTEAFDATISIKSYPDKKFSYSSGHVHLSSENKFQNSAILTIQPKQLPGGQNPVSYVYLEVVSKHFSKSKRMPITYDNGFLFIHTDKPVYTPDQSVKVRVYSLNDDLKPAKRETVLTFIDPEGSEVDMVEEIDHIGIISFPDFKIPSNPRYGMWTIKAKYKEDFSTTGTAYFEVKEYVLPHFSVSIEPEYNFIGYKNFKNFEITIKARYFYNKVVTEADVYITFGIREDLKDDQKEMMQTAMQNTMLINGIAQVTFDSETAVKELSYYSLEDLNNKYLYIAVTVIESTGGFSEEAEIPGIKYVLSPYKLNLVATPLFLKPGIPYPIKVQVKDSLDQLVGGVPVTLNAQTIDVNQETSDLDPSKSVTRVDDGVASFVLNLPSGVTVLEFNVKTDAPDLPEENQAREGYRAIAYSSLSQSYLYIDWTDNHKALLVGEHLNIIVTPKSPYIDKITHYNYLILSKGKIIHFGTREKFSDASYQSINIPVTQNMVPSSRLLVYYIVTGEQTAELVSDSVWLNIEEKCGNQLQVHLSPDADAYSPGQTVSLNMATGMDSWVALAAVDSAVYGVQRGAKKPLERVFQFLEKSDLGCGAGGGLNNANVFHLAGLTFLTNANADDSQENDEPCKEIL
T1 sequence (P13671 22-934 limits assumed, chain 3 of 3): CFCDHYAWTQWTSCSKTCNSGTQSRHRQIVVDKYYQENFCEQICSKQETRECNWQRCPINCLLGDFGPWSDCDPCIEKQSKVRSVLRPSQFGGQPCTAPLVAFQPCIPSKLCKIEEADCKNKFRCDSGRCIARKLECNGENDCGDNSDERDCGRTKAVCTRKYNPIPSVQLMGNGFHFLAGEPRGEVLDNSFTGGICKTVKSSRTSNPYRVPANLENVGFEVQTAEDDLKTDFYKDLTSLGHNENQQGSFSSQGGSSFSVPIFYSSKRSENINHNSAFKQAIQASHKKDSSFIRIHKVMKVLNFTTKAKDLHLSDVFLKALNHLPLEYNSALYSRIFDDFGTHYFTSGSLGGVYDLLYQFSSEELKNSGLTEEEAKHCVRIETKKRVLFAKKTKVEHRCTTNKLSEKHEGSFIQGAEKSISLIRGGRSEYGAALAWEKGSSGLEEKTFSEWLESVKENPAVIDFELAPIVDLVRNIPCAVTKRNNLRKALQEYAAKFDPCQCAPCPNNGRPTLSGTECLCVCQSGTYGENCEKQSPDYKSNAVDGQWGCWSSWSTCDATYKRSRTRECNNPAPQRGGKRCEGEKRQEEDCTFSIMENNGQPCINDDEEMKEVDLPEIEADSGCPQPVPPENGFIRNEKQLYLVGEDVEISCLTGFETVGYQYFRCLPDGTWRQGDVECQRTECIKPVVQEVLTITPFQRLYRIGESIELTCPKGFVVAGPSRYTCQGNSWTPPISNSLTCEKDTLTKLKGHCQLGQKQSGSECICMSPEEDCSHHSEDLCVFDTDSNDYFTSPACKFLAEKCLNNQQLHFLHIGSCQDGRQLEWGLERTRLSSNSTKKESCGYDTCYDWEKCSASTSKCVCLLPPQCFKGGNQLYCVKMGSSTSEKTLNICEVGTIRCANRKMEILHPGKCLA

binding result (human C5b-6 complexes [1]) | binding result [2] | binding result (human C3b) | binding result (human C5b-6 complexes [3]) | Binder
no binding (tested: 10 µg/well) | no binding (tested: 10 µg/well) | binds |  | recombinant FHR-5 (rFHR-5), polyhistidine-tagged, expressed in insect cells (other, Insert amplified from immediately downstream of the signal peptide-encoding region to the end of the ORF (mature FHR-5, 551 amino acids); also called His-tagged recombinant protein; not shown: 10-histidine tag coded by vector pFASTBAC1-His10+ (after a gp67 signal peptide)) EGTLCDFPKIHHGFLYDEEDYNPFSQVPTGEVFYYSCEYNFVSPSKSFWTRITCTEEGWSPTPKCLRMCSFPFVKNGHSESSGLIHLEGDTVQIICNTGYSLQNNEKNISCVERGWSTPPICSFTKGECHVPILEANVDAQPKKESYKVGDVLKFSCRKNLIRVGSDSVQCYQFGWSPNFPTCKGQVRSCGPPPQLSNGEVKEIRKEEYGHNEVVEYDCNPNFIINGPKKIQCVDGEWTTLPTCVEQVKTCGYIPELEYGYVQPSVPPYQHGVSVEVNCRNEYAMIGNNMITCINGIWTELPMCVATHQLKRCKIAGVNIKTLLKLSGKEFNHNSRIRYRCSDIFRYRHSVCINGKWNPEVDCTEKREQFCPPPPQIPNAQNMTTTVNYQDGEKVAVLCKENYLLPEAKEIVCKDGRWQSLPRCVESTAYCGPPPSINNGDTTSFPLSVYPPGSTVTYRCQSFYKLQGSVTVTCRNKQWSEPPRCLDPCVVSEENMNKNNIQLKWRNDGKLYAKTGDAVEFQCKFPHKAMISSPPFRAICQEGKFEYPICE
 |  |  | no binding (tested: 10 µg/well) | Factor H (Sigma) (other, UniProt P08603 19-1231, looked up, Bought protein; also called FH) EDCNELPPRRNTEILTGSWSDQTYPEGTQAIYKCRPGYRSLGNVIMVCRKGEWVALNPLRKCQKRPCGHPGDTPFGTFTLTGGNVFEYGVKAVYTCNEGYQLLGEINYRECDTDGWTNDIPICEVVKCLPVTAPENGKIVSSAMEPDREYHFGQAVRFVCNSGYKIEGDEEMHCSDDGFWSKEKPKCVEISCKSPDVINGSPISQKIIYKENERFQYKCNMGYEYSERGDAVCTESGWRPLPSCEEKSCDNPYIPNGDYSPLRIKHRTGDEITYQCRNGFYPATRGNTAKCTSTGWIPAPRCTLKPCDYPDIKHGGLYHENMRRPYFPVAVGKYYSYYCDEHFETPSGSYWDHIHCTQDGWSPAVPCLRKCYFPYLENGYNQNYGRKFVQGKSIDVACHPGYALPKAQTTVTCMENGWSPTPRCIRVKTCSKSSIDIENGFISESQYTYALKEKAKYQCKLGYVTADGETSGSITCGKDGWSAQPTCIKSCDIPVFMNARTKNDFTWFKLNDTLDYECHDGYESNTGSTTGSIVCGYNGWSDLPICYERECELPKIDVHLVPDRKKDQYKVGEVLKFSCKPGFTIVGPNSVQCYHFGLSPDLPICKEQVQSCGPPPELLNGNVKEKTKEEYGHSEVVEYYCNPRFLMKGPNKIQCVDGEWTTLPVCIVEESTCGDIPELEHGWAQLSSPPYYYGDSVEFNCSESFTMIGHRSITCIHGVWTQLPQCVAIDKLKKCKSSNLIILEEHLKNKKEFDHNSNIRYRCRGKEGWIHTVCINGRWDPEVNCSMAQIQLCPPPPQIPNSHNMTTTLNYRDGEKVSVLCQENYLIQEGEEITCKDGRWQSIPLCVEKIPCSQPPQIEHGTINSSRSSQESYAHGTKLSYTCEGGFRISEENETTCYMGKWSSPPQCEGLPCKSPPEISHGVVAHMSDSYQYGEEVTYKCFEGFGIDGPAIAKCLGEKWSHPPSCIKTDCLSLPSFENAIPMGEKKDVYKAGEQVTYTCATYYKMDGASNVTCINSRWTGRPTCRDTSCVNPPTVQNAYIVSRQMSKYPSGERVRYQCRSPYEMFGDEEVMCLNGNWTEPPQCKDSTGKCGPPPPIDNGDITSFPLSVYAPASSVEYQCQNLYQLEGNKRITCRNGQWSEPPKCLHPCVISREIMENYNIALRWTAKQKLYSRTGESVEFVCKRGYRLSSRSHTLRTTCWDGKLEYPTCAKR
